Results: publication PMC5853329, “EjNAC3 transcriptionally regulates chilling-induced lignification of loquat fruit via physical interaction with an atypical CAD-like gene”

How the values were obtained:
[1] = target: T1, EjNAC3 (Eriobotrya japonica (loquat), UniProt A0A2D3HXD3 1-352); assay: EMSA; 5 mM Mg2+, poly(dI-dC), biotinylated probe 1 nM (legend; Methods 2 nM); LightShift kit binding buffer, 5 mM MgCl2, 2.5% glycerol, 0.05% NP-40, 50 ng/ul poly(dI-dC), 50 ng protein, 20 min room temperature; 6% native PAGE, 0.5x TBE; pH and salt not given; settings: protein: recombinant; tags: His (pET-32a fusion); chain copies: 2; blunt
T1 sequence: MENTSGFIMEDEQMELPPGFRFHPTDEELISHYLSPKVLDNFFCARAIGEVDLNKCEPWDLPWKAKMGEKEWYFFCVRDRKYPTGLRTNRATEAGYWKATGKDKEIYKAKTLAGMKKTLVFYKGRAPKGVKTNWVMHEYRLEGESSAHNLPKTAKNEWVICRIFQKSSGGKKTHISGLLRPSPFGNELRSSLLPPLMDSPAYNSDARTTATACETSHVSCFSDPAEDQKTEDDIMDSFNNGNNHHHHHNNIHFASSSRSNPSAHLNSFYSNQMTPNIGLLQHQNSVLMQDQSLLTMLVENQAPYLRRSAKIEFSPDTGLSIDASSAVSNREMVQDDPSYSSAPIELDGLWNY

[2] = target: T1, EjNAC3; assay: competition; cold probe 100 or 300 nM vs 1 nM biotinylated probe; reduces shift; LightShift kit binding buffer, 5 mM MgCl2, 2.5% glycerol, 0.05% NP-40, 50 ng/ul poly(dI-dC), 50 ng protein, 20 min room temperature; 6% native PAGE, 0.5x TBE; pH and salt not given; settings: protein: recombinant; tags: His (pET-32a fusion); chain copies: 2; label: none; blunt

B1: EjCAD-like promoter probe (-502 to -454) (dsDNA)
DNA 1: GTCCTATACGTAATCTTATACTCCAAATAAAATTAGGAATGCAGCATAA
DNA 2: TTATGCTGCATTCCTAATTTTATTTGGAGTATAAGATTACGTATAGGAC
[1]
  binding result: binds

B2: EjCAD-like promoter cold probe (-502 to -454) (dsDNA)
DNA 1: GTCCTATACGTAATCTTATACTCCAAATAAAATTAGGAATGCAGCATAA
DNA 2: TTATGCTGCATTCCTAATTTTATTTGGAGTATAAGATTACGTATAGGAC
[2]
  binding result: binds
